# Data from the DeepSol protein solubility set.
# Test: soluble on expression in E. coli; label from the status in PepcDB or PDB records
row,Sequence,soluble on expression in E. coli
1,MSLAGCTSPANNGAGGDENGETVYRVAYVARTQSDSFAAWLANAISEEADKYDNIIIDVFDGQASDSTQNSLIENAITSNYDAIIIQPNNGEAQKSYAEQAVAAGIITITTNARIEGVQGASSVDADPYEQAKVNADVALEQIPQNANVVVLKGPPGNFHADARRDSWQKEFFDKRPDVTIVGEEIANWNKDEAMTYMETWVQANSKIDAIIAMNDNMAAGALEVVRDDSNFAGMLSYGVDGTAEAVLLIQEGVMTQTSLQSAYDLATALLDTSNKLLTGAETQIDIDIDAPVINSDNVEEYVEMHKRAGAIREGHHHHHH,soluble
2,MAHHHHHHMDSGTKREFGRNVTNVDDFKGAKLTPSKIHHQKFEGSDKRHGVRLADEGKWCIHKRSRVEPVAAGPSRERSVEETKSTTTCCSLPLPSQETNLCSIRGDSNTCSSDDSSIERYFDESCEAIEAPTAPAPRPPSPTWNNALRTVSGTAAAVLQDLKNAASLQTDQSSSSEVLPSPPVIPLIL,not soluble
3,GPGSMLATFFGRRAEPEFKVVCDPESIVFPVDFDAPDYPYEQAFEEADAYVRKLPTRGVVPVSDVLRLQFYSLFKQATEGDINEDVKQPSMLRDWEGYWKVYGWRKCRGMTRERARDLYTDLLDLQIRKHCSFVWGAPSGEDRWAAFYDGVRIIRNLPKGGYYLPDSLRAHFYALYKQALVGNLSDFQKTPAAFSEKYKWLRSRPSKAGFDQMRYDEWAALKGMSCEKAKRMYCKDIFKSAAMCGYVWAPPGTADHLKVIGDQTSAKTLKKRTDADEHAERIAGATHLTMEEAMDAVGVHLSMVERLTMHSFTKKEQTAAARTAEEAAGRKKREEKAEVKRRGVAGSHVDLNKGMAFARPKAEESTEATVTEKTEETEAKEDAERRLEAQGTDKDPQSVCNLCGSFAKDIASDAEAPEKVKESGAAAAAAKDCTAASTSPAPVPKLQASAKVAEASKILPSKSEPVLKKEPAVKGTSKGAKSSHQAKNGAKKGPAGKRTKAN,soluble
4,SLMAGSFCWRMLGLVSKVGNRARCFSSVAASEEELLDFSGSELQFNSCSLHLSLHPFFNFLLGIHSCFVCKESKTDVKRCVVTQCGKFYHEACVKKYPLTVFESRGFRCPLHSCVSCHASNPSNPRPSKGKMMRCVRCPVAYHSGDACLAAGCSVIASNSIICTAHFTARKGKRHHAHVNVSWCFVCSKGGSLLCCESCPAAFHPDCLNIEMPDGSWFCNDCRAGKKLHFQDIIWVKLGNYRWWPAEVCHPKNVPPNIQKMKHEIGEFPVFFFGSKDYYWTHQARVFPYMEGDRGSRYQGVRGIGRVFKNALQEAEARFREIKLQREARETQESERKPPPYKHIKVNKPYGKVQIYTADISEIPKCNCKPTDENPCGFDSECLNRMLMFECHPQVCPAGEFCQNQCFTKRQYPETKIIKTDGKGWGLVAKRDIRKGEFVNEYVGELIDEEECMARIKHAHENDITHFYMLTIDKDRIIDAGPKGNYSRFMNHSCQPNCETLKWTVNGDTRVGLFAVCDIPAGTELTFNYNLDCLGNEKTVCRCGASNCSGFLGDRPKTSTTLSSEEKGKKTKKKTRRRRAKGEGKRQSEDECFRCGDGGQLVLCDRKFCTKAYHLSCLGLGKRPFGKWECPWHHCDVCGKPSTSFCHLCPNSFCKEHQDGTAFSCTPDGRSYCCEHDLGAASVRSTKTEKPPPEPGKPKGKRRRRRGWRRVTEGK,soluble
5,MGSDKIHHHHHHMLKSLLLTPINLAVKPFPAAKARLDAAKIVLKRWVKLRHFISDLLHAKSFMFWSAQDTSYAKLSSELIFQYHKLEKGLCMAGPRRFFGRDPVIATCRLVKRWSGAGLPSNDPVFLGAIETLRAYRDRLAVTPPPPEHATQIWSLLNECLSLAPPTPSLTTPRPYQPSAGTAATFDLLCAQRRSVRAYTTDVVPISLIHEAIATAQLSPSACNRQPWRLHIYRDPQRTKHLLELQNGNAGFGHQLTTLLVVCADSRTFFDATERNEPYVDAGLFVMSLLLALQSRGLASCCLNWCVSPDTDQKGHDRGDIPSNEKIIMYLAVGYADAQAMVPRSPRRNLETVVTLHEQ,not soluble
6,GPGSMPSPFQQTLLARAYHYVHPKTGRPIRQFRRYGDPRYINNEAALIRGQWGLITADFGMVTQSQMENARLAILRRLPRGSFTLTMHTDYEEFPVVKKSPESRMGAGKANIHHFAFKFTTGVPLFEIMPISARRLNQAEAEGIFLAGRPFIPLQTVVVPQGRVDEYHVFK,not soluble
7,GKRSHSMKRNPNAPVTKAGWLFKQASSGVKQWNKRWFVLVDRCLFYYKDEKEESILGSIPLLSFRVAAVQPSDNISRKHTFKAEHAGVRTYFFSAESPEEQEAWIQAMGEAARVQ,soluble
8,MGHHHHHHSHAEDATERACGLTMDPECAQLLPALCAVLVDPRQPVADDTCLEKLLDWFKTVTEGESSVVLLQEHPCLVELLSHVLKVQDLSSGVLSFSLRLAGTFAAQENCFQYLQQGELLPGLFGEPGPLGRATWAVPTVRSGWIQGLRSLAQHPSALRFLADHGAVDTIFSLQGDSSLFVASAASQLLVHVLALSMRGGAEGQPCLPGGDWPACAQKIMDHVEESLCSAATPKVTQALNVLTTTFGRCQSPWTEALWVRLSPRVACLLERDPIPAAHSFVDLLLCVARSGPRDAAGGPGWATVFLG,not soluble
9,MNSCNRLPCAHEVLAVFAHPDDESFGLGAVLGDFTAQGTRLRGLCFTHGEASTLGRTDRNLGEVRREELAAAAQVLGVDHVQLLAYPDNGLAQIPLNELTQRVVDALAGADLLLVFDDNGVTGHPDHRRATEAALAAASTPSIPVLAWALPQPIADRLNAEFSASFGGRGHGHLDIMIEVDRSRQLAAIGCHFTQSADNPVLWRRLELLGDREYLRWLRRSVP,soluble
10,MTQYQALIIGFGKAGKTLAATLAKTGWRVAIIEQSASMFGGTCINIGCIPTKTLVHDAEREGDFSVAMQRKAAVVNFLRDKNFHNLADLDNVDVIEGRAEFIDNHTLRVFQADGERVLRGEKIFINTGAESVIPAITGLTTTAGVFDSTGLLSLSQRPARLGILGGGYIGLEFASMFANFGTKVTIFEAAPQFLPREDRDIAQAITRILQEKGVELILNANVQAVSSKEGAVQVETPEGAHLVDALLVASGRKPATAGLQLQNAGVAVNERGGIIVDDYLRTTADNIWAMGDVTGGLQFTYISLDDFRIVRDGLLGDGKRSTRDRQNVPYSVFMTPPLSRVGLTEEQARASGATVQVVTLPVAAIPRARVMNDTRGVLKAVVDVNTQRIVGVSLLCVDSHEMINIVKTVMDADLPYTVLRDQIFTHPTMSESLNDLFSLIK,not soluble
11,MGSDKIHHHHHHMISSITSSIPKDVLYAAAEWYATLYDEDCSENDRQTWQRWLHEDETHRLAWQQVEQIHARFHAVDSQLASSVLSRRGEERRRMLKLLVIASVTGGVGFSLPWDSYAADYRTGTGETRELSIETGMTVWLNTDSALNQQGNPALSQPLTFQLIKGELMLDNQTAHAARLTTPHGDLAAAAYSCQLALRYTSAHSVLSVFSGEVLLQTAVPAAQRVTAGQQVIFTRDRCSEPAPVENFRQSWRKGLLVADSMPLGQLINEISRYHNGYFHVDSAVTNLRISGVFPLHETDRLLDAIVRTLPVKVSRRFSWWVDIRPS,not soluble
12,MSLRISTNQIYQRGLDNLLTQQERLARLQDQQASGIRVRTPSDDPVASAQIELIKQRINNIELFQNNRQAADSALRLEEGILSNAVNSLHRLREIQIQAGNPSLSEEDRKTLAVEAQALLNQLLDYANTKDSNGSYMFSGSKSLTQPVSLNLSGQYVYNGDSTQRFQAVTTSLLVAVNDTGDNVFMRIPSGNGRFAIRETLTPNTGTASVSSGSVTNEAAFVPDNYTMTFALNSQGNLVVMVSGTLSGNVIPPSGLPDDAPLYQEGSAIGFNGMEMVVSGLPKAGDSFSISPAKNESIFSTVQRMINNLNKPYTSSVEKAATQTENNQLLAQIDSALGHILSVQSDLGARLNQLETAEKANNDYLDISAATLKKLREIDEGHHHHHH,soluble
13,MGSDKIHHHHHHMNNKGKLAILFIDALPYFKSRNIGQILNLYRLIPGLGYSVNQHYELLYGKTPDDVGFFGEWSLGCSTKFDTIKFRFHKTIDSILWKLKLNLIRKGYRKIILRLEDMIPLGRRKYFLRKGTYAFRELAKEGFILYNTQFRGYIEELDRTLPRNEEKRMETMFNKMFNIAKNTDHPLLFTINIIDHIGHKYGPESPEYDYFLDLFAKKLLDLLIFLKENGFHVILFSDHGMSPYKAKVNLSDFEHYFGKFFGKYIVYFYDSLYFRAWIFDSFLYLEIEEFLNKLPGKILSSNDRKKFGVVHEEHGHVIFVLNEGFTFHPNYFGYSVMKGYHGYLPEFERQHGIAAFSRAFKIDNLFQGNPPKYLNSIDFSRIIKHILEANRNV,not soluble
